In series [1] the target is OsGSTU17 mutant K64A (Oryza sativa). Nature of the series: native gel or EMSA; native PAGE of the purified proteins, gel pre-run 30-60 min, 100-200 V, 0-4 °C; BSA and ovalbumin as markers; molecular weight compared with SDS-PAGE of the denatured proteins. (In general: A gel shift assay detects complexes by their altered migration in electrophoresis.)
For series [2], the target named is OsGSTU17 mutant E78A (Oryza sativa). Described as above.
For series [3], the target named is wild-type OsGSTU17 (rice tau class glutathione transferase) (Oryza sativa). The series is described as above.
Substrate in series [4]: O=[N+]([O-])c1ccc(Cl)c2nonc12
Nature of the series: steady-state kinetics, non-linear regression. In kind it is biochemical, Oryza sativa. The following applies: GSH fixed at 1.0 mM; NBD-Cl 0.2 to 1.0 mM. From the text:
steady-state kinetics, non-linear regression on OsGSTU17

By stoichiometry N is commonly meant a count of units in the complex or per binding partner. In series [1], OsGSTU17 mutant K64A (enzyme) gave a stoichiometry N of 2.

OsGSTU17 mutant E78A (enzyme): the stoichiometry N in series [2] was 2.

The molecule “wild-type OsGSTU17 (rice tau class glutathione transferase) (enzyme)” had a stoichiometry N in series [3] of 2.

B1: OsGSTU17 (Oryza sativa Japonica Group; K64A) (protein)
chain: MAADKGVKVFGMWASPMAIRVEWALRLKGVDYEYVDEDLANKSEALLRHNPVTKKVPVLVHDGAPLAESTVIVEYIDEAWKHGYPIMPSDPFDRAQARFWARFAEEKCNAALYPIFMTTGEEQRKLVHEAQQCLKTLETALEGKKFFGGDAFGYLDIVTGWFAYWLPVIEEACGVEVVTDEALPLMKAWFDRVLAVDAVKAVLPPRDKLVALNKARREQILSA
One may read the Km as the substrate concentration at which the rate is half of its maximum. One may read the Vmax as the rate approached at saturating substrate. Usually kcat stands for the maximal rate divided by the concentration of active sites. One may read the kcat/Km as the second-order rate constant that governs catalysis at low substrate concentration. Regarding B1, in series [4], the Km turned out to be 507 ± 25 µM, the Vmax was found to be 0.287 µM/min/mg, the kcat stood at 0.217 s⁻¹ and the catalytic efficiency (kcat/Km) came to 428 M⁻¹ s⁻¹.
